Measured values: patent US20110250237A1, “IMMUNOGENIC AMPHIPATHIC PEPTIDE COMPOSITIONS” (priority 2008, published 2011)

Experiment: Differential scanning calorimetry of peptide and particles
Type: physicochemical
Details: normal saline, peptide 1.11 mg/ml, scanned 20° C. to 130° C.
Procedure: Differential scanning calorimetry is used to study the unfolding events associated with the peptide and particles. This technique is used to measure the amount of heat required to increase the temperature of the sample and reference, resulting in peaks at phase transition temperatures at which more heat is required by the samples to be maintained at the same temperature as the reference. In case of proteins the melting temperatures are determined at which half of the protein exists in an unfolded state.
The peptide of SEQ ID NO: 1 is used to form particles at peptide to lipid (POPC) molar ratios of 1:1.75, 1:3 and 1:7, the particles with peptide at concentration of 1.11 mg/ml and lipid at 0.55 mg/ml are used. The peptide alone and lipid alone are used as controls and the samples are scanned from 20° C. to 130° C.

Sequence: DWLKAFYDKVAEKLKEAFLA [peptide SEQ ID NO: 1, amphipathic peptide]
- phase transition: 50 °C
